In PMC4066776 one finds stoichiometry N data, which are given here for one substance.

This experiment deals with S. pneumoniae RecA lacking the first 28 residues (Δ28), purified (S. pneumoniae) (UniProt P0A451). Nature of the experiment: SEC-MALS; purified Δ28RecA; details in Supplementary Results and Supplementary Figure S5. In general terms: In gel filtration, larger molecules generally elute earlier.

By stoichiometry N is commonly meant a count of units in the complex or per binding partner.

“S. pneumoniae RecA lacking the first 28 residues (Δ28), purified (from UniProt P0A451 29-388) (domain or fragment)”: the stoichiometry N was 2.
